Measured values reported in US20230212319A1, “NOVEL ANTIGEN BINDING DOMAINS AND SYNTHETIC ANTIGEN RECEPTORS INCORPORATING THE SAME” (University of Southern California, priority 2020, published 2023).

Key:
Type in all cases: cell-based
[1] = system: U266 cells; test: JNG NFAT-GFP induction on co-culture with U266
[2] = system: Nalm6 cells; test: JNG assay, co-culture with Nalm6 cells; conditions: co-culture with Nalm6
How it was run: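 Read-out: % GFP-positive cells by flow cytometry after ~4 to 18 h coculture of SAR-transduced JNG cells with targets (E:T about 1:2). Scores reflect GFP induction above parental JNG controls: +/- ≈5%, + ≈10%, up to 5+ ≈50%.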

[3] = system: RAJI-CD19-KO cells; test: JNG assay, co-culture with RAJI-CD19-KO cells; conditions: co-culture with Raji-CD19-KO
How it was run: (§1)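 Read-out is NFAT-driven GFP measured by flow cytometry after ~4–18 h co-culture of SAR-expressing JNG cells with target cells (E:T about 1:2). SARs were introduced by lentiviral spinfection and selected with puromycin or blasticidin when possible; scores (+/- to 5+ ≈ 5–50% GFP+) are relative to parental JNG cells.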

[4] = system: L363 cells; test: JNG assay, co-culture with L363 cells; conditions: co-culture with L363
How it was run: as §1

[5] = system: RS;411; test: JNG assay, co-culture with RS;411 cells; conditions: co-culture with RS411
How it was run: as §1

[6] = system: RAJI cells; test: JNG assay, co-culture with RAJI cells; conditions: JNG cells expressing construct, co-culture with Raji
How it was run: as §1

B1: 22220 (protein)
chain: MALPVTALLLPLALLLHAARPACEVQLLESGGGLIQPGGSLRLSCAASGFTFSSHAMTWVRQAPGKGLEWVSAISGSGDYTHYADSVKGRFTISRDNSKNTVYLQMNSLRAEDSAVYYCAKDEDGGSLLGHRGQGTLVTVSSGTGAIGFLRTAEFDIQMTQSPSSLSASVGDRVTITCKASDHINNWLAWYQQKPGQAPKLLIYGATTLETGVPSRFSGSGSGTDYTLTISSLQPEDFATYYCQQSWNTPWTFGQGTKLEIKRLEDLKNVFPPEVAVFEPSKAEIAHTQKATLVCLATGFYPDHVELSWWVNGKEVHSGVCTDPQPLKEQPALNDSRYCLSSRLRVSATFWQNPRNHFRCQVQFYGLSENDEWTQDRAKPVTQIVSAEAWGRADCGITSASYHQGVLSATILYEILLGKATLYAVLVSALVLMAMVKRKDSRGRAKRSGSGATNFSLLKQAGDVEENPGPTSATMDWIWRILFLVGAATGAHSGPEVQLVESGGGLVQAGGSLRLSCAASGRTFSMGWFRQAPGKEREFVAAITYSGGSPYYADSVKGRFTISRDNAKNTVYLQMNSLKPEDTAVYYCAANPTYGSDWNAENWGQGTQVTVSSGSGGGGSGGGGSGGGGSFEQVQLQQPGAELVKPGASVKMSCKASGYAFSSYWINWMKQKPGQGLEWIGQIYPGDGDTNYNGKFKGRATLTADTSSSTAYMQLSSLTSEDSAVYFCARSITTVVGCAMDYWGQGTSVTVSSTRIQNPDPAVYQLRDSKSSDKSVCLFTDFDSQTNVSQSKDSDVYITDKCVLDMRSMDFKSNSAVAWSNKSDFACANAFNNSIIPEDTFFPSPESSCDVKLVEKSFETDTNLNFQNLSVIGFRILLLKVAGFNLLMTLRLWSSRAKRSGSGVKQTLNFDLLKLAGDVESNPGPSRGHMTEYKPTVRLATRDDVPRAVRTLAAAFADYPATRHTVDPDRHIERVTELQELFLTRVGLDIGKVWVADDGAAVAVWTTPESVEAGAVFAEIGPRMAELSGSRLAAQQQMEGLLAPHRPKEPAWFLATVGVSPDHQGKGLGSAVVLPGVEAAERAGVPAFLETSAPRNLPFYERLGFTVTADVEVPEGPRTWCMTRKPGA
What does the source list for B1?
NFAT-GFP ASSAY: U266 [1]: + (refer to approximately 5%, 10%, 20%, 30%, 40% and 50% GFP positive cells); NFAT-GFP ASSAY: Nalm6 [2]: +/- (refer to approximately 5%, 10%, 20%, 30%, 40% and 50% GFP positive cells); NFAT-GFP ASSAY: Raji-CD19-KO [3]: + (refer to approximately 5%, 10%, 20%, 30%, 40% and 50% GFP positive cells); NFAT-GFP ASSAY: L363 [4]: +/- (refer to approximately 5%, 10%, 20%, 30%, 40% and 50% GFP positive cells)

B2: 22245 (protein)
chain: MALPVTALLLPLALLLHAARPACEVQLLESGGGLIQPGGSLRLSCAASGFTFSSHAMTWVRQAPGKGLEWVSAISGSGDYTHYADSVKGRFTISRDNSKNTVYLQMNSLRAEDSAVYYCAKDEDGGSLLGHRGQGTLVTVSSGTGAIGFLRTAEFDIQMTQSPSSLSASVGDRVTITCKASDHINNWLAWYQQKPGQAPKLLIYGATTLETGVPSRFSGSGSGTDYTLTISSLQPEDFATYYCQQSWNTPWTFGQGTKLEIKRLEDLKNVFPPEVAVFEPSKAEIAHTQKATLVCLATGFYPDHVELSWWVNGKEVHSGVCTDPQPLKEQPALNDSRYCLSSRLRVSATFWQNPRNHFRCQVQFYGLSENDEWTQDRAKPVTQIVSAEAWGRADCGITSASYHQGVLSATILYEILLGKATLYAVLVSALVLMAMVKRKDSRGRAKRSGSGATNFSLLKQAGDVEENPGPTSATMDWIWRILFLVGAATGAHSGPEVQLVESGGGLVQAGGSLRLSCAASGRTFSMGWFRQAPGKEREFVAAITYSGGSPYYADSVKGRFTISRDNAKNTVYLQMNSLKPEDTAVYYCAANPTYGSDWNAENWGQGTQVTVSSGSGGGGSGGGGSGGGGSFEQVQLQQPGAELVKPGASVKMSCKASGYAFSSYWINWMKQKPGQGLEWIGQIYPGDGDTNYNGKFKGRATLTADTSSSTAYMQLSSLTSEDSAVYFCARSITTVVGCAMDYWGQGTSVTVSSTRIQNPDPAVYQLRDSKSSDKSVCLFTDFDSQTNVSQSKDSDVYITDKCVLDMRSMDFKSNSAVAWSNKSDFACANAFNNSIIPEDTFFPSPESSCDVKLVEKSFETDTNLNFQNLSVIGFRILLLKVAGFNLLMTLRLWSSRAKRSGSGVKQTLNFDLLKLAGDVESNPGPSRGHMTEYKPTVRLATRDDVPRAVRTLAAAFADYPATRHTVDPDRHIERVTELQELFLTRVGLDIGKVWVADDGAAVAVWTTPESVEAGAVFAEIGPRMAELSGSRLAAQQQMEGLLAPHRPKEPAWFLATVGVSPDHQGKGLGSAVVLPGVEAAERAGVPAFLETSAPRNLPFYERLGFTVTADVEVPEGPRTWCMTRKPGA
How did the “NFAT-GFP ASSAY: U266” value [1] turn out when B2 was run?
Its value is “+ (refer to approximately 5%, 10%, 20%, 30%, 40% and 50% GFP positive cells)”.

What about the “NFAT-GFP ASSAY: Nalm6” value [2] of the same molecule?
Its value is “+/- (refer to approximately 5%, 10%, 20%, 30%, 40% and 50% GFP positive cells)”.

What about the “NFAT-GFP ASSAY: Raji-CD19-KO” value [3] of the same molecule?
The value was “+ (refer to approximately 5%, 10%, 20%, 30%, 40% and 50% GFP positive cells)”.

What about the “NFAT-GFP ASSAY: L363” value [4] of the same molecule?
Its value is “+/- (refer to approximately 5%, 10%, 20%, 30%, 40% and 50% GFP positive cells)”.

B3: 22135 (protein)
chain: MALPVTALLLPLALLLHAARPACEVQLLESGGGLIQPGGSLRLSCAASGFTFSSHAMTWVRQAPGKGLEWVSAISGSGDYTHYADSVKGRFTISRDNSKNTVYLQMNSLRAEDSAVYYCAKDEDGGSLLGHRGQGTLVTVSSGTGGGGSGGGGSGGGGSEFDIQMTQSPSSLSASVGDRVTITCKASDHINNWLAWYQQKPGQAPKLLIYGATTLETGVPSRFSGSGSGTDYTLTISSLQPEDFATYYCQQSWNTPWTFGQGTKLEIKRLEDLKNVFPPEVAVFEPSEAEISHTQKATLVCLATGFYPDHVELSWWVNGKEVHSGVCTDPQPLKEQPALNDSRYCLSSRLRVSATFWQNPRNHFRCQVQFYGLSENDEWTQDRAKPVTQIVSAEAWGRADCGFTSESYQQGVLSATILYEILLGKATLYAVLVSALVLMAMVKRKDSRGRAKRSGSGATNFSLLKQAGDVEENPGPTSATMDWIWRILFLVGAATGAHSGPEVQLVESGGGLVQAGGSLRLSCAASGRTFSMGWFRQAPGKEREFVAAITYSGGSPYYADSVKGRFTISRDNAKNTVYLQMNSLKPEDTAVYYCAANPTYGSDWNAENWGQGTQVTVSSGSGGGGSGGGGSGGGGSFEQVQLQQPGAELVKPGASVKMSCKASGYAFSSYWINWMKQKPGQGLEWIGQIYPGDGDTNYNGKFKGRATLTADTSSSTAYMQLSSLTSEDSAVYFCARSITTVVGCAMDYWGQGTSVTVSSTRIQNPDPAVYQLRDSKSSDKSVCLFTDFDSQTNVSQSKDSDVYITDKCVLDMRSMDFKSNSAVAWSNKSDFACANAFNNSIIPEDTFFPSPESSCDVKLVEKSFETDTNLNFQNLSVIGFRILLLKVAGFNLLMTLRLWSSRAKRSGSGVKQTLNFDLLKLAGDVESNPGPSRGHMTEYKPTVRLATRDDVPRAVRTLAAAFADYPATRHTVDPDRHIERVTELQELFLTRVGLDIGKVWVADDGAAVAVWTTPESVEAGAVFAEIGPRMAELSGSRLAAQQQMEGLLAPHRPKEPAWFLATVGVSPDHQGKGLGSAVVLPGVEAAERAGVPAFLETSAPRNLPFYERLGFTVTADVEVPEGPRTWCMTRKPGA
What does the source list for B3?
NFAT-GFP ASSAY: U266 [1]: 3+ (refer to approximately 5%, 10%, 20%, 30%, 40% and 50% GFP positive cells); NFAT-GFP ASSAY: RS411 [5]: 2+ (refer to approximately 5%, 10%, 20%, 30%, 40% and 50% GFP positive cells); NFAT-GFP ASSAY: L363 [4]: 2+ (refer to approximately 5%, 10%, 20%, 30%, 40% and 50% GFP positive cells)

B4: 22217 (protein)
chain: MALPVTALLLPLALLLHAARPACEVQLLESGGGLIQPGGSLRLSCAASGFTFSSHAMTWVRQAPGKGLEWVSAISGSGDYTHYADSVKGRFTISRDNSKNTVYLQMNSLRAEDSAVYYCAKDEDGGSLLGHRGQGTLVTVSSGTGAVVRGAEFDIQMTQSPSSLSASVGDRVTITCKASDHINNWLAWYQQKPGQAPKLLIYGATTLETGVPSRFSGSGSGTDYTLTISSLQPEDFATYYCQQSWNTPWTFGQGTKLEIKRLEDLKNVFPPEVAVFEPSKAEIAHTQKATLVCLATGFYPDHVELSWWVNGKEVHSGVCTDPQPLKEQPALNDSRYCLSSRLRVSATFWQNPRNHFRCQVQFYGLSENDEWTQDRAKPVTQIVSAEAWGRADCGITSASYHQGVLSATILYEILLGKATLYAVLVSALVLMAMVKRKDSRGRAKRSGSGATNFSLLKQAGDVEENPGPTSATMDWIWRILFLVGAATGAHSGPEVQLVESGGGLVQAGGSLRLSCAASGRTFSMGWFRQAPGKEREFVAAITYSGGSPYYADSVKGRFTISRDNAKNTVYLQMNSLKPEDTAVYYCAANPTYGSDWNAENWGQGTQVTVSSGSGGGGSGGGGSGGGGSFEQVQLQQPGAELVKPGASVKMSCKASGYAFSSYWINWMKQKPGQGLEWIGQIYPGDGDTNYNGKFKGRATLTADTSSSTAYMQLSSLTSEDSAVYFCARSITTVVGCAMDYWGQGTSVTVSSTRIQNPDPAVYQLRDSKSSDKSVCLFTDFDSQTNVSQSKDSDVYITDKCVLDMRSMDFKSNSAVAWSNKSDFACANAFNNSIIPEDTFFPSPESSCDVKLVEKSFETDTNLNFQNLSVIGFRILLLKVAGFNLLMTLRLWSSRAKRSGSGVKQTLNFDLLKLAGDVESNPGPSRGHMTEYKPTVRLATRDDVPRAVRTLAAAFADYPATRHTVDPDRHIERVTELQELFLTRVGLDIGKVWVADDGAAVAVWTTPESVEAGAVFAEIGPRMAELSGSRLAAQQQMEGLLAPHRPKEPAWFLATVGVSPDHQGKGLGSAVVLPGVEAAERAGVPAFLETSAPRNLPFYERLGFTVTADVEVPEGPRTWCMTRKPGA
For B4, which “NFAT-GFP ASSAY: U266” value [1] is on record?
The value was 4+ (refer to approximately 5%, 10%, 20%, 30%, 40% and 50% GFP positive cells).

And the “NFAT-GFP ASSAY: Nalm6” value [2]?
The value was 4+ (refer to approximately 5%, 10%, 20%, 30%, 40% and 50% GFP positive cells).

And the “NFAT-GFP ASSAY: Raji-CD19-KO” value [3]?
The value was 3+ (refer to approximately 5%, 10%, 20%, 30%, 40% and 50% GFP positive cells).

And the “NFAT-GFP ASSAY: Raji” value [6]?
Its value is “+ (refer to approximately 5%, 10%, 20%, 30%, 40% and 50% GFP positive cells)”.

What about the “NFAT-GFP ASSAY: L363” value [4] of the same molecule?
The value was 3+ (refer to approximately 5%, 10%, 20%, 30%, 40% and 50% GFP positive cells).
